From patent US20180244768A1 (published 2018)

T1: human thyroglobulin (TG) peptide on HLA-A*02:01 (human)
T1 peptide: LVLEIFTLL

T2: human thyroglobulin (TG) peptide on HLA-A*02:01 (human)
T2 peptide: NLFGGKFLV


How the values were obtained:
[1] = target: T1, human thyroglobulin (TG) peptide on …; assay: cytokine release
Experimental: (§1) Interferon (IFN)-γ release by transduced PBL was determined as previously described in Wang et al., J. Immunol. Methods, 366(1-2): 43-51 (2011). Briefly, retrovirally-transduced cells (1×10⁵) were co-cultured with 5×10⁴ target cells (XTC, XTC/A2, Cos A2, or Cos A2 transfected with TG) or control tumor cell lines for 18-22 hrs in RPMI with 10% FBS at 37° C., 5% CO₂. On the subsequent day, IFN-γ secretion was determined by enzyme-linked immunosorbent assay (ELISA).

[2] = target: T2, human thyroglobulin (TG) peptide on …; assay: cytokine release
Experimental: as §1

| binding result [1] | binding result [2] | Binder |
| --- | --- | --- |
| recognises | – | human anti-TG TCR (TCR, V domains shown) Valpha: RKEVEQDPGPFNVPEGATVAFNCTYSNSASQSFFWYRQDCRKEPKLLMSVYSSGNEDGRFTAQLNRASQYISLLIRDSKLSDSATYLCVVHSSNTGKLIFGQGTTLQVKP Vbeta: NAGVTQTPKFQVLKTGQSMTLQCAQDMNHEYMSWYRQDPGMGLRLIHYSVGAGITDQGEVPNGYNVSRSTTEDFPLRLLSAAPSQTSVYFCASSYSLTSGGALVSYEQYFGPGTRLTVT |
| – | recognises | murine anti-TG TCR (TCR, V domains shown) Valpha: GEQVEQRPPHLSVREGDSAVIICTYTDPNSYYFFWYKQEPGAGLQLLMKVFSSTEINEGQGFTVLLNKKDKQLSLNLTAAHPGDSAVYFCAVSSSGSWQLIFGSGTQLTVMP Vbeta: NSKVIQTPRYLVKGQGQKAKMRCIPEKGHPVVFWYQQNKNNEFKFLINFQNQEVLQQIDMTEKRFSAECPSNSPCSLEIQSSEAGDSALYLCASLGGSQDTQYFGPGTRLLVL |
